From patent publication US20230102339A1 (Eli Lilly, published 2023)
Like-named read-outs stand apart in the source and are kept apart here.

T1: human GIP receptor (hGIPR) (human, UniProt P48546 22-466)
T1 sequence: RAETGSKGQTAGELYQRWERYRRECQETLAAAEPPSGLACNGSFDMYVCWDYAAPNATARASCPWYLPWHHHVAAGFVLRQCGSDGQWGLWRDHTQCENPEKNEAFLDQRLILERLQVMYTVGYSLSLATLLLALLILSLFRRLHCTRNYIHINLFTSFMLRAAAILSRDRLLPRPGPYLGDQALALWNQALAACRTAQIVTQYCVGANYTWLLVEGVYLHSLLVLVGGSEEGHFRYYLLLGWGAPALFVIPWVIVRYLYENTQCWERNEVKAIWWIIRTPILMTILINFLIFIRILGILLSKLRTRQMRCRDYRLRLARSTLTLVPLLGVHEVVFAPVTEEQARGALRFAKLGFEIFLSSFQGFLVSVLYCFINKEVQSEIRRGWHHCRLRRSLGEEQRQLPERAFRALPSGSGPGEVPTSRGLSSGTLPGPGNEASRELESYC


Legend:
[1] = target: T1, human GIP receptor (hGIPR); test: cell-based or functional assay
[2] = target: T2, human GCG receptor (hGCGR) (human, UniProt P47871 26-477); test: cell-based or functional assay
[3] = target: T1, human GIP receptor (hGIPR); test: cell-based or functional assay; remark: listed apart in the source
[4] = target: T3, human GLP-1 receptor (hGLP-1R) (human, UniProt P43220 24-463); test: cell-based or functional assay
[5] = target: T2, human GCG receptor (hGCGR); test: cell-based or functional assay; remark: listed apart in the source
[6] = target: T1, human GIP receptor (hGIPR); test: cell-based or functional assay; remark: listed apart in the source
[7] = target: T3, human GLP-1 receptor (hGLP-1R); test: cell-based or functional assay; remark: listed apart in the source
[8] = target: T2, human GCG receptor (hGCGR); test: radioligand competition binding, SPA, membranes of HEK293 cells overexpressing hGCGR, with bacitracin
Protocol: (§1) The assays are performed in the presence of bacitracin as a non-specific blocking agent to prevent acylated moieties of test analogs from binding to protein components used in standard assay buffers (e.g., albumin).
(§2) Competition curves are plotted as the percent specific inhibition (y-axis) versus log concentration of compound (x-axis) and analyzed using a four-parameter nonlinear regression fit with variable slope (ABase or Genedata).

[9] = target: T1, human GIP receptor (hGIPR); test: radioligand competition binding, SPA, membranes of HEK293 cells overexpressing hGIPR, with bacitracin
Protocol: as §1, §2

[10] = target: T3, human GLP-1 receptor (hGLP-1R); test: radioligand competition binding, SPA, membranes of HEK293 cells overexpressing hGLP-1R, with bacitracin
Protocol: as §1, §2

T2 sequence (P47871 other isoform, or with tags, fused parts or gaps limits assumed): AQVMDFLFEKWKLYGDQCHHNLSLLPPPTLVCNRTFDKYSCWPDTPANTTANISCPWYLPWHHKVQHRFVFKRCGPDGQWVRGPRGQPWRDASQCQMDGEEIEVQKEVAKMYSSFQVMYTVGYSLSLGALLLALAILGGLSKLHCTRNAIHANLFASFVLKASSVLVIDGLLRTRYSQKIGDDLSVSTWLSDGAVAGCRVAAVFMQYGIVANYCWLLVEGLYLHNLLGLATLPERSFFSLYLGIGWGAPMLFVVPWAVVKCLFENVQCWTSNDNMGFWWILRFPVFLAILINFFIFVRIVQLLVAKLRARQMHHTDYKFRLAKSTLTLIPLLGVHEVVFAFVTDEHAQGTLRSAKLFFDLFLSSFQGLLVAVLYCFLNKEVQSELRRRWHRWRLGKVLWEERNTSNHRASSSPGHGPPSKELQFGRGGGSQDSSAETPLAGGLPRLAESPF

Molecule	cAMP EC50 (0.1% bovine casein) [1] [nM]	cAMP EC50 (0.1% bovine casein, 1.0% human serum albumin) [1] [nM]	cAMP Emax (0.1% bovine casein) [1] [%]	cAMP EC50 (0.1% bovine casein) [2] [nM]	cAMP Emax (0.1% bovine casein) [2] [%]	cAMP EC50 (0.1% bovine casein) [3] [nM]	cAMP Emax (0.1% bovine casein) [3] [%]	cAMP EC50 (0.1% bovine casein) [4] [nM]	cAMP Emax (0.1% bovine casein) [4] [%]	cAMP EC50 (0.1% bovine casein, 1.0% human serum albumin) [5] [nM]	cAMP Emax (0.1% bovine casein, 1.0% human serum albumin) [5] [%]	cAMP EC50 (0.1% bovine casein, 1.0% human serum albumin) [6] [nM]	cAMP Emax (0.1% bovine casein, 1.0% human serum albumin) [6] [%]	cAMP EC50 (0.1% bovine casein, 1.0% human serum albumin) [7] [nM]	cAMP Emax (0.1% bovine casein, 1.0% human serum albumin) [7] [%]	Ki [8] [nM]	Ki [9] [nM]	Ki [10] [nM]
human GIP(1-42)NH2 (from UniProt P09681 52-93) (ligand)	1.08	0.756	98	–	–	–	–	–	–	–	–	–	–	–	–	–	–	–
YXQGTXTSDXSIXLDXKAQXXFIXXLLEGGPSSGEPPPS (Aib at 2; αMeF(2F) at 6; 4Pal at 10; αMeL at 13; Orn (O) at 16; K17 conjugated on the epsilon-amino group with 2-[2-(2-amino-ethoxy)-ethoxy]-acetyl-γE-CO-(CH2)18-CO2H; αMeL at 20; Aib at 21; D-glutamic acid (e) at 24; αMeY at 25; C-terminal amide (S39-NH2), Synthetic acylated 39-residue peptide) [Example 3 (Incretin Analog 3)]	–	–	–	2.49	99	0.0306	103	0.451	107	480	97	3.72	105	114	111	1.73	0.114	3.63
YXQGTXTSDYSILLDXKAQXAFIEYLLEGGPSSGEPPPE (Aib at 2; αMeF(2F) at 6; Orn (O) at 16; K17 conjugated on the epsilon-amino group with 2-[2-(2-amino-ethoxy)-ethoxy]-acetyl-γE-CO-(CH2)18-CO2H; 4Pal at 20; C-terminal amide (E39-NH2), Synthetic acylated 39-residue peptide, obtained as TFA salt) [Example 1 (Incretin Analog 1)]	–	–	–	1.2	101	0.0513	102	0.345	106	–	–	–	–	180	102	0.629	0.111	4.53
YXQGTXTSDYSIXLDXKAQXAFIEXLLEGGPSSGEPPPS (Aib at 2; αMeF(2F) at 6; αMeL at 13; Orn (O) at 16; K17 conjugated on the epsilon-amino group with 2-[2-(2-amino-ethoxy)-ethoxy]-acetyl-γE-CO-(CH2)18-CO2H; Iva at 20; αMeY at 25; C-terminal amide (S39-NH2), Synthetic acylated 39-residue peptide) [Example 2 (Incretin Analog 2)]	–	–	–	–	–	0.0256	101	–	–	537	112	2.91	99	119	116	0.95	0.158	2.54
